Measured values taken from US11497796B2, “Agents directed against a cis RGMa/neogenin interaction or lipid rafts and use of the same in methods of treatment” (UNIVERSITY HEALTH NETWORK, priority 2013, dated 2022).
Values belong to the molecule of their own block, whether it stands above or below them. No end group written: not given here.

How the values were obtained:
4Ig-domain of Neogenin = molecular target: T1, 4Ig-domain of Neogenin (Gallus gallus, UniProt Q90610); assay: ELISA / AP binding assay of RGMa peptides to Neogenin domains; details: AP-tagged fragments 1.0 μg/mL on coated His-tagged 4Ig
T1 construct: made in house
T1 sequence (Q90610 1-383): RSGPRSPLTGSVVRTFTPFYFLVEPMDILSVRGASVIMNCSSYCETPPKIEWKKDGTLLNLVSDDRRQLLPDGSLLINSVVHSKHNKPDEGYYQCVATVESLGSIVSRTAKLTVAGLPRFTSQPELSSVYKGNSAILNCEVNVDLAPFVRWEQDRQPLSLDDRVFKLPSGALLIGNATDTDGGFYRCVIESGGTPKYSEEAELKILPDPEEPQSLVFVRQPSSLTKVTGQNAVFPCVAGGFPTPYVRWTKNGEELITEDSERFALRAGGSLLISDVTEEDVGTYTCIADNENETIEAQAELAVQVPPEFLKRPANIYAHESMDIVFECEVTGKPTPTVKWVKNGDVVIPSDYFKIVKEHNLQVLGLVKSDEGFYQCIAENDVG
From the text: Specifically, the 4Ig-domain and 6FNIII-domain of Neogenin were each fused to alkaline phosphatase (AP). The 4Ig-domain and 6FNIII-domain of Neogenin were found in the extracellular portion of Neogenin. Accession No. AAC59662 (SEQ ID NO:1) was the amino acid sequence of Neogenin. The 4Ig-domain was amino acids 1 to 383 of Accession No. AAC59662 (SEQ ID NO:1). The 6FNIII-domain was amino acids 429 to 1036 of Accession No. AAC59662 (SEQ ID NO:1).
The binding of these fusions to various RGMa peptides were analyzed in an ELISA assay (FIG. 2A).
To determine if distinct N-terminal regions of RGMa bound the 4Ig- and 6FNIII-domains of Neogenin, peptides were generated that spanned the N-terminal region of RGMa. The amino acid sequence of RGMa was Accession No. NP_989868.1 (SEQ ID NO:6). These peptides were a peptide spanning amino acids 28-73 of RGMa (also referred to herein as “N-Raft”) and a peptide spanning amino acids 77-113 of RGMa (also referred to herein as “N-inh”). […] In a complementary experiment, in which the N-Raft and N-inh peptides of RGMa were fused with AP instead of the 4Ig- and 6FNIII-domains of Neogenin, N-Raft bound to the 4Ig-domain and not the 6FNIII-domain while N-inh bound to the 6FNIII-domain and not the 4Ig-domain (FIG. 9). Additionally, N-inh and N-Raft coated beads pulled down 6FNIII-domain and 4Ig-domain, respectively, which was consistent with the ELISA results described above (FIG. 2B).
The assay was conducted in a 96-well microtiter plate (Corning Incorporated). The wells were coated with 100 μl (10 μg/mL) of Poly-L-Lysine at 4° C. overnight. Wells were then washed three times with 100 μl of PB ST (+0.02% Tween).
50 μl (2.5 μg/mL) of His-tagged: Full-length Neogenin; the 4Ig-domain of Neogenin; and 6FNIII-domain of Neogenin were coated onto each well for 1 hour at 37° C. Following three washes of 100 μl PBST, each well was then blocked with 300 μl of 3% BSA in PBST for 1 hour at 37° C.
50 μl (1.0 μg/mL) AP-tagged: N-RGMa (28-73); N-RGMa (28-54); N-RGMa (40-62); N-RGMa (54-73); N-RGMa (54-62) in 1% BSA+PBST was then added to each well and incubated at 37° C. for 1 hour. Each well was washed thoroughly three times with 100 μl PBST followed by subsequent equilibration of each well with Alkaline Phosphatase (AP) developing buffer (100 mM NaHCO3, 1 mM MgCl2). The reaction was developed using AP developing buffer supplemented with, p-nitrophenyl phosphate (pNPP) (Sigma-Aldrich) and allowed to develop until color development. The reaction was stopped with the addition of 50 μl (0.1M) NaOH. The absorbance of each reaction was measured using a microplate autoreader (BIO-TEK Instruments Inc.) at 405 nanometers (nm) wavelength.

[1] = test system: temporal retinal explants (axonal outgrowth); assay: Retinal explants outgrowth assay; assay type: cell-based, chick
Experimental: Poly-L-Lysine (SIGMA; 10 μg/ml) coated glass coverslips were treated with Laminin (Invitrogen; 10 μg/ml) and RGMa proteins (5 μg/ml) and incubated for 3 hours at room temperature. Temporal retinal explants were cultured on protein-coated surfaces for 18 hours. To disrupt the lipid rafts, explants were pretreated with 10 mM methyl-β-cyclodextrin (MβCD) for 12 minutes or 2 U/ml cholesterol oxidase (CO) for 1 hour at 37° C. Explants were then fixed with 4% paraformaldehyde (PFA) and stained with Alexa488-phalloidin. Fiber length was quantified using Image Pro 5.0. For immunolocalization, explants were treated with Cholera Toxin B-FITC (C1655; Sigma; 10 mg/mL) and patched, fixed and stained with Neogenin antibody. Retinal ganglion cells (RGCs) were electroporated with RGMa-His and cultured for 18 hours. The cells were fixed and stained with Neogenin and His-tag antibodies.
Retinal explants outgrowth assay. Poly-L-Lysine (PLL; SIGMA; 10 μg/ml) coated glass coverslips were treated with Laminin (10 μg/ml; Invitrogen) and RGMa proteins (5 μg) and incubated for 3 hrs at room temperature. PLL treated coverslips were coated with myelin overnight (6 μg/cm2), followed by coating with Laminin. Temporal retinal explants were cultured on either myelin or protein-coated surfaces in DMEM F-12 media (2% chick serum, 10% FBS) for 18 h. To disrupt rafts, explants were pre-treated with 10 mM MβCD for 12 min or 2 U/ml CO for 1 h at 37° C., washed, and cultured on protein coated coverslips. Explants were then fixed with 4% PFA and stained with Alexa488-fluor-phalloidin (1:50; Molecular Probes). Fiber length was quantified using Image Pro 5.0.
Statistical analysis of retinal outgrowth assays was performed using Student's two-tail t-test using Excel (Microsoft). Results were expressed as the mean±SEM (n=at least 3 independent experiments; 2 duplicates per independent experiment, >10 explants per duplicate).

[2] = test system: retinal ganglion cells (RGCs); assay: Retinal organotypic cultures (whole mounts), propidium iodide cell death; assay type: cell-based; details: perturbing lipid rafts
Experimental: (A) HEK293 cells that stably express RGMa (FIG. 11) were transfected with empty plasmid (Ctrl) or Neogenin (Neo). Neogenin induced cell death (arrows) when compared to control. (B) Quantification of cell death in Neogenin-transfected cells that were incubated in BSA (Neo+Ctrl), 4Ig (1 μg/ml), N-Raft (1 μg/ml), Noggin (100 nM), or MβCD (10 mM). […] Data were average±SEM (n=3 independent experiments), *p<0.0001. (C) Representative images and (D) Quantification of cell death in chick E5 tecta electroporated with GFP- and a Neogenin-expression plasmid and then injected with N-RGMa50-99 (Ctrl; 1 μg/ml), 4Ig (1 μg/ml), or N-Raft (1 μg/ml) and subjected to TUNEL assay. […] Data were an average±SEM from 3 different tecta/conditions (*p<0.001). Bar, 100 μm. (E) Representative images and (F) Quantification of retinal whole mounts incubated for 4 days with control peptide (1 μg/ml), 4Ig (1 μg/ml), N-Raft (1 μg/ml), or MβCD (10 mM) and dead cells were stained with Propidium Iodide (PI). Images from 9 whole mounts per condition from 3 independent experiments were taken at the same intensities and the fluorescence measured using ImageJ. […] Bar, 500 μm. (G) Fluorescence micrographs of flat-mounted retinas depicting Fluorogold-labeled retinal ganglion cells (RGCs) in injured retinas at 14 days following axotomy. Control retinas (Ctrl) had few surviving RGCs. 4Ig, N-raft or MβCD increased cell survival. Bar, 200 μm. (H) Representations of the retinal areas selected in our analyses. […] Data were average±SEM (n=6 eyes), *p<0.01.
For this study, retinal organotypic cultures were used, in which axotomy of retinal ganglion cells (RGCs) deprived the cells of tropic factors and induced apoptosis. Cell death was detected using propidium iodide (PI) and all images were taken at the same intensity with the RGC-layer in focus. Cell death was gauged by measuring the relative PI intensity of whole mounts.

[3] = test system: Neogenin association with lipid rafts; assay: Lipid raft fractionation of injected chick brain/tecta; assay type: in vivo; details: injected into chick brain/optic tectum one day before fractionation
Experimental: Injected chick E8 tecta (4Ig, 2 mg/mL; N-raft, 1 mg/mL; methyl-β-cyclodextrin (10 mM)) or transfected cells (Neogenin and RGMa) were collected 24 hours later, lysed and placed at the bottom of a sucrose density gradient (0.9-0.8-0.75-0.7-0.6-0.5-0.4-0.2 M) and centrifuged at 38,000 rpm for 16 hours in SW 60 rotor (Beckman Instruments Inc.).
Proteins (4Ig, 2 mg/ml; N-Raft, 1 mg/mL; RGMaΔ, 5 mg/ml; methyl-β-cyclodextrin (10 mM)) were injected in chick E8 optic tectum and tecta were collected 24 hrs later. HEK cells were transfected with Neogenin and different RGMa constructs and collected 48 hrs later. For treatment with RGMaΔ, Neogenin transfected cells were treated with RGMaΔ (2 mg/ml) and BMP-2 (100 nM) and further incubated for 1 hr at 37° C. Tecta (3 tecta for each set of experiment) and/or cells were solubilized in chilled buffer (25 mM Tris-HCl, pH 7.4, 150 mM NaCl, 5 mM EDTA and protease inhibitor cocktail) and passed through G25 and G30 needles, respectively, and centrifuged at 800 g for 10 min at 4° C. Cold Triton X-100 was added to the post nuclear supernatant to a final concentration of 1% and incubated on ice for 1 hour. 2× volume of 2M sucrose was added and sample placed at the bottom of a sucrose density gradient (0.9-0.8-0.75-0.7-0.6-0.5-0.4-0.2 M) and centrifuged at 38,000 rpm for 16 hours in SW 60 rotor (Beckman Instruments Inc.). 400 μl fractions were collected from top (top numbered 1 and next eight fractions numbered consequently) and stored at −80° C.
As such, it was examined if overexpressing recombinant 4Ig and N-Raft competed with the endogenous 4Ig and N-Raft domains to displace Neogenin from the lipid raft fractions to the non-lipid raft fractions. Specifically, N-Raft, 4Ig-domain, or a control peptide, which was amino acid residues 50-99 of RGMa (also referred to herein as “N-RGMa^50-99”), was injected into the optic tectum at E8. The tecta were collected a day later for fractionation-analyses.

Molecule: N-RGMa (40-62aa): amino acids 40-62 of RGMa (SEQ ID NO:4), AP-tagged (WAATSGSHHLGAEETPEFCTALR; also: AP-tagged)
- binding to the 4Ig-domain of Neogenin (4Ig-domain of Neogenin): bound specifically

Molecule: N-RGMa (54-73aa): amino acids 54 to 73 of RGMa (SEQ ID NO:3), AP-tagged (TPEFCTALRAYAHCTRRTAR; cysteine pairing not given here; also: AP-tagged)
- binding to the 4Ig-domain of Neogenin (4Ig-domain of Neogenin): bound specifically

Molecule: cholesterol oxidase [CO]
- axonal outgrowth on RGMa proteins after lipid raft disruption ([1]; 10 mM MβCD or 2 U/ml of CO): restored to control values
- enhancement of cell survival vs. control [2]: about 50%

B1: Noggin: BMP-chelator, Accession No. AAA83259 (SEQ ID NO:5) (protein, listed as Homo sapiens)
chain: MERCPSLGVTLYALVVVLGLRATPAGGQHYLHIRPAPSDNLPLVDLIEHPDPIFDPKEKDLNETLLRSLLGGHYDPGFMATSPPEDRPGGGGGAAGGAEDLAELDQLLRQRPSGAMPSEIKGLEFSEGLAQGKKQRLSKKLRRKLQMWLWSQTFCPVLYAWNDLGSRFWPRYVKVGSCFSKRSCSVPEGMVCKPSKSVHLTVLRWRCQRRGGQRCGWIPIQYPIISECKCSC
modifications: Noggin - Accession No. AAA83259
- Neogenin localization in membrane fractions [3]: not present in the lipid rafts
- outgrowth in retinal explants (E8) exposed to N-RGMa, C-RGMa or RGMaΔ ([1]; in presence of Noggin): restored outgrowth
- axonal outgrowth, agent alone ([1]; no RGMa protein): unaffected

B2: C-RGMa: C-terminal RGMa isoform of the CNS (protein)
chain: PHLRTFTDTFQTCKVQGAWPLIDNNYLNVQVTNTPVLPGSSATATSKLTIIFKSFQECVEQKVYQAEMDELPAAFADGSKNGGDKHGANSLKITEKVSGQHIEIQAKYIGTTIVVRQVGRYLTFAVRMPEEVVNAVEDRDSQGLYLCLRGCPLNQQIDFQTFRLAQAAEGRARRKGPSLPAPPEAFTYESATAKCREKLPVEDLYFQSCVFDLLTTGDVNFMLAAYYAFEDVKMLHSNKDKLHLYERTRALAPGN
- effect on axonal outgrowth when provided as growth substrate (in trans) ([1]; protein as substrate): blocked axon growth

Now from value to molecule:

- binding to the 4Ig-domain of Neogenin (4Ig-domain of Neogenin): demonstrated binding
B3: N-RGMc (SEQ ID NO:9): N-RGMc from mouse (protein)
chain: MGQSPSPRSPHGSPPTLSTLTLLLLLCGQAHSQCKILRCNAEYVSSTLSLRGGGSPDTPRGGGRGGLASGGLCRALRSYALCTRRTARTCRGDLAFHSAVHGIEDLMIQHNCSRQGPTAPPPARGPALPGAGPAPLTPDPCDYEARFSRLHGRAPGFLHCASFGD
modifications: Mouse N-RGMc
notes: N-RGMc from mouse

- binding to the 4Ig-domain of Neogenin (4Ig-domain of Neogenin): demonstrated binding
B4: N-RGMa (SEQ ID NO:10): N-RGMa from mouse (protein)
chain: MQPPRERLVVTGRAGWMGMGRGAGRSALGLWPTLAFLLCSFPAAISPCKILKCNSEFWSATSSGSHAPASDDVPEFCAALRTYALCTRRTARTCRGDLAYHSAVHGIEDLMSQHNCSKDGPTSQPRVRTLPPAGDSQERSDSPEICHYEKSFHKHSAAPNYT
modifications: Mouse N-RGMa
notes: N-RGMa from mouse
